The values below come from US20210371529A1 (Innovent, published 2021).

In assay [1] the target is T1, LAG-3 on activated human CD4+ T cells (human, UniProt P18627 23-525).
T1 construct: whole, on cells; also called endogenous LAG-3
T1 sequence (looked up): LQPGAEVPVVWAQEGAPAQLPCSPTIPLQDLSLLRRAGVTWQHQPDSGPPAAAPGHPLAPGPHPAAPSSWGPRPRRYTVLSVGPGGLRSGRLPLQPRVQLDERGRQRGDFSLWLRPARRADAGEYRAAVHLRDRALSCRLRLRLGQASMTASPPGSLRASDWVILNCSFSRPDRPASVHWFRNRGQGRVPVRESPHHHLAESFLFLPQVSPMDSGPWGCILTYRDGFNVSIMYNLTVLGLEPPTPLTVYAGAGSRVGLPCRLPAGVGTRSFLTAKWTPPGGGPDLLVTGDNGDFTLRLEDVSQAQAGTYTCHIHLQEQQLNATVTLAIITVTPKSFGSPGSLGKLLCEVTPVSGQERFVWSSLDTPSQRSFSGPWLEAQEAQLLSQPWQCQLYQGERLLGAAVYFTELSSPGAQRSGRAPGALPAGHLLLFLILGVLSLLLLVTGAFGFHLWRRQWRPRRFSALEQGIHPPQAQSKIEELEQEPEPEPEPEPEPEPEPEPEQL
Nature of the assay: flow cytometry on activated human CD4+ T cells, MFI curve. On the procedure:
CD4+ T cell isolation: This was performed according to the ‘Untouched CD4+ T cell isolation’ kit instructions (11346D, Invitrogen). PBMCs were left for 2 h before the cell suspension was pipetted into a 15-mL centrifugation tube. The cells were centrifuged at 200 g for 10 min, and the precipitate was resuspended with 500 μL of a separating medium, 100 μL of AB type serum and 100 μL of purified antibody. The mixture was incubated for 20 min at 4° C., and washed once with the separating medium. 500 μL of a Bead Buffer (Invitrogen) was added for an incubation of 15 min, and the beads were then removed by a magnetic field. The mixture was washed once with a T cell culture medium, and resuspended with 8 mL of a culture medium. The resulting mixture was then incubated at 37° C. in presence of 6% CO₂.
According to the ratio of magnetic beads to CD4⁺ T cells equivalent to 1:1, anti-CD3/CD28 magnetic beads (Gibco) were added to CD4⁺ T cells for stimulation for 3 days. The cell density was adjusted to 1×10⁶/mL. The cells were loaded into a first well, 150 μL/well, and into other wells, 100 μL/well. […] The samples were mixed well. […] The mixture was resuspended in 60 μL of PBS and analyzed by flow cytometry. The flow cytometry was performed on an Accuri C6 system (BD Biosciences), and a concentration-dependent curve was fitted with GraphPad according to the mean fluorescence intensity (MFI).
Background: A flow cytometer gives signals particle by particle.

Assay [2] concerns the target T2, human LAG-3 overexpressed on HEK293 cells (human, UniProt P18627 23-525).
T2 construct: whole, on cells; also called 293-hLAG-3 cells; hLAG-3 on the cell surface
T2 sequence (looked up): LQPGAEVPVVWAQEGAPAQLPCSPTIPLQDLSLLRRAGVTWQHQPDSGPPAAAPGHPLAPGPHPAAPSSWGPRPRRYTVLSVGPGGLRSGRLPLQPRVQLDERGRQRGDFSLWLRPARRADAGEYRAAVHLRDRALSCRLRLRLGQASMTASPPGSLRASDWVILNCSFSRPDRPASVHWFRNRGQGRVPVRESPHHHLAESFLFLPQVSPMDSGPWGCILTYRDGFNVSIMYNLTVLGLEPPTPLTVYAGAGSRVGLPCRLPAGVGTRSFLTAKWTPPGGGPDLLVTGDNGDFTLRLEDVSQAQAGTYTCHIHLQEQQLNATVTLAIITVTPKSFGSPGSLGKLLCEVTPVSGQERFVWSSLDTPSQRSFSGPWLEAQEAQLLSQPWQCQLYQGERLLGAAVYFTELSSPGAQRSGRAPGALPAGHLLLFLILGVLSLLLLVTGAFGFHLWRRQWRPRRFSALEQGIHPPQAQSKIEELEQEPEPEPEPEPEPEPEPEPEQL
In words: flow cytometry on 293-hLAG-3 cells, MFI curve. On the procedure:
The binding of the 4 exemplary antibodies of the invention described above to human LAG-3 was measured in a flow cytometry-based assay. 293 cells (293-hLAG-3 cells) over-expressing human LAG-3 were generated by transfecting human embryonic kidney 293 cells (Invitrogen) with pCHO1.0 vectors (Invitrogen) carrying human LAG-3 cDNA (Sino Biological) cloned into multiple cloning sites (MCSs). 293-hLAG-3 cells (0.2×10⁶ cells) were mixed with different concentrations of antibodies (ADI-26789, ADI-26869 and reference 25F7) prepared as described above (the antibodies were serially three-fold diluted from a maximum concentration of 500 nM in PBS containing 0.1% bovine serum albumin (BSA) until the 8th concentration). The cells were incubated on ice for 30 min. The cells were then washed at least twice prior to addition of a secondary antibody (a PE-labeled goat anti-human IgG antibody, Southern Biotech, final concentration […]) diluted in 1:100, and incubated on ice (protected from light) for 30 minutes. The cells were washed at least twice and analyzed by flow cytometry. The flow cytometry assay was performed on an Accuri C6 system (BD Biosciences), and a concentration-dependent curve was fitted with GraphPad according to the mean fluorescence intensity (MFI).

The next assay addresses T3, human LAG-3-His (human, UniProt P18627 23-450).
T3 construct: Bought antigen (ArcoBiosystems), 100 nM in solution in the ForteBio assay; also called human LAG-3 antigen (ArcoBiosystems); hLAG-3; not shown: His tag
T3 sequence (looked up): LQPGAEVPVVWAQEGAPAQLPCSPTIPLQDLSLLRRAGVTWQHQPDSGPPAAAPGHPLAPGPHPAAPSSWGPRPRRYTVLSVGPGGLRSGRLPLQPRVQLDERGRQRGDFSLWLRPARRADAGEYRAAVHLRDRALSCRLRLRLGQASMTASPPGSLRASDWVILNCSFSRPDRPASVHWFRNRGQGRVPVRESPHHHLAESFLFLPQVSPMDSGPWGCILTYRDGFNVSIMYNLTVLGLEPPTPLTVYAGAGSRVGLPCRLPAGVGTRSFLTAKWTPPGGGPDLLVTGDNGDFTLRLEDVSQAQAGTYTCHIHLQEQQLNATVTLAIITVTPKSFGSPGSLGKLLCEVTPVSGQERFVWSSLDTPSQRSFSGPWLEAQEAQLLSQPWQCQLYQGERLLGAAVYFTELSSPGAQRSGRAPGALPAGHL
Nature of the assay: BLI (ForteBio), antibody on AHQ tip, human LAG-3-His 100 nM in solution, univalent. As to the method: The purified antibody obtained as described above was loaded on-line onto an AHQ sensor (ForteBio) for ForteBio affinity assay. The sensor with the loaded antibody was then exposed to 100 nM of a human LAG-3 antigen (ArcoBiosystems) for 5 minutes before transferring the sensor to the assay buffer for dissociation for 5 minutes for dissociation rate measurement. Kinetic analysis was performed using a 1:1 binding model.
(In general: BLI is a label-free optical method that tracks binding on a fibre tip over time.)

B1: ADI-31851 (antibody, human IgG4 S228P, kappa, F234A L235A, V domains shown)
VH: QLQLQESGPGLVKPSETLSLTCTVSGGSISSPDYYWGWIRQPPGKGLEWIGSIVYSGYTYYNPSLKSRVTISVDTSKNQFSLKLSSVTAADTAVYYCARVRTWDQSFDIWGQGTMVTVSS
VL: DIQMTQSPSSLSASVGDRVTITCQAGQDISNYLNWYQQKPGKAPKLLIYDASNLETGVPSRFSGSGSGTDFTFTISSLQPEDIATYYCQQVLELPPWTFGGGTKVEIKR
notes: IgG4 heavy chain constant region with kappa light chain; expressed in HEK293 cells
As for B1, the EC50 – broadly, the concentration giving half of the maximal effect – worked out at 0.013 nM in assay [1] and 0.501 nM in assay [2]. Further, the affinity with human LAG-3-His, expressed as Kd, was 0.606 nM.

B2: ADI-31853 (antibody, human IgG4 S228P, kappa, F234A L235A, V domains shown)
VH: QLQLQESGPGLVKPSETLSLTCTVSGGSIYSESYYWGWIRQPPGKGLEWIGSIVYSGYTYYNPSLKSRVTISVDTSKNQFSLKLSSVTAADTAVYYCARVRTWDAAFDIWGQGTMVTVSS
VL: DIQMTQSPSSLSASVGDRVTITCQASQDISNYLNWYQQKPGKAPKLLIYDASNLETGVPSRFSGSGSGTDFTFTISSLQPEDIATYYCQQVLELPPWTFGGGTKVEIKR
notes: as for B1
B2: the figures for the EC50 in assay [1] and in assay [2] were 0.011 nM and 0.433 nM, respectively. For the same molecule, the Kd (commonly the equilibrium constant for the complex coming apart) with human LAG-3-His is 0.622 nM.
